Measurements: patent publication US20250326842A1
Residue numbers refer to the chain shown, from its start.

B1: BGA50 (antibody, V domains shown)
VH: EVQLQQSGPEPVKPGASVKISCKASGYSFTGYFLNWVKQSHGKSLEWIGRISPYNGDTFYNQKFKGKATLTVDKSSSTAHMELLSLTSEDSAVYYCGRSGSFTLFYAMDYWGQGTSVTVSS
VL: DIVMSQSPSSLAVSVGENITMTCKSSQSLFHSGNQKNYLAWYQQKPGQSPKLLIYWASTRESGVPDRFTGSGSETDFTLTISSVKAEDLAVYFCQQYYSYPITFGAGTKLELK
B2: BGA38 (antibody, V domains shown)
VH: EVQLQESGAEHVMPGASVKMSCKAAGYTFTDYWMYWVKQRPGQGLEWIGTIDTSDHKTSYNQKFRGKATLTVDESSSTAYMQLSSLTSEDSAVYYCARDFIITVNYPVVDYWGQGTSVTVSS
VL: QNVLTQSPAIMSASPGEKVTITCSAGSSVNYMHWFQQKPGTSPKLWIYSTSNLASGVPARFSGSGSGTSYSLTISRMEAEDAATYYCQQRSSLPFTFGSGTKLEIK
B3: BGA12 (antibody, V domains shown)
VH: QVQLQQSGPEVVRPGVSVKISCKGSGYTFTDYAMHWVKQSHGKSLEWIGVVLTHNDNTNYNQKFKAKATMTVDRSSSTAYMELARLTSEDSAIYYCAREVYYDFDDGNYFPMDYWGQGTSVTVSS
VL: DIVMSQSPSSLAVSVGEKVTMSCKSSQSLLYSDNQKNYLAWYQQKPGQSPKLLIYWASTRESGVPVRFTGSGSGTDFTLTISSVKAEDLAVYYCQQYYSYHTFGGGTKLEIK
B4: BGA86 (antibody, human IgG1, V domains shown)
VH: EVQLQESGGGSVKPGGSLQLSCAASGFTFSSYGMSWIRQSPEKKLEWVAEISSGGTYTYYPDTVTGRFTISRDNAKNTLYLEMSSLRSEDTAMYYCARGDPFGYWGQGTLVTVSA
VL: DVVMTQSHKFVSTSVGGRVSITCKASQDVMTAVAWYQQKPGQSPKLLIYSTSYRFTGVPDRFTGSGSGTDFTLTINGVQAEDLAVYSCQQHYSTPRTFGGGTKLEIK
B5: BGA381 (antibody, V domains shown)
VH: EVQLVQSGAEVKKPGASVKVSCKASGYTFTDYWIYWVRQAPGQGLEWMGTIDTSDHKTSYNQKFRGRVTMTRDTSTSTVYMELSSLRSEDTAVYYCARDFIITVNYPVVDYWGQGTLVTVSS
VL: QIVLTQSPATLSLSPGERATLSCSAGSSVNYMHWFQQKPGQAPRLLIYSTSNLASGVPARFSGSGSGTDYTLTISSLEPEDFAVYYCQQRSSLPFTFGQGTKLEIK
B6: BGA383 (antibody, V domains shown)
VH: B5 VH with H56A
VL: B5 VL
B7: BGA382 (antibody, V domains shown)
VH: B5 VH
VL: B5 VL with I2N, M32L
B8: BGA861 (antibody, V domains shown)
VH: EVQLVESGGGLVKPGGSLRLSCAASGFTFSSYGISWVRQAPGKGLEWVSEISSGGTYTYYPDTVTGRFTISRDNAKNTLYLQMSSLRAEDTAVYYCARGDPFGYWGQGTLVTVSS
VL: DIQMTQSPSSLSASVGDRVTITCKASQDVMTAVAWYQQKPGKAPKLLIYSTSYRFTGVPSRFSGSGSGTDFTLTISSLQPEDFATYYCQQHYSTPRTFGGGTKVEIK
B9: BGA862 (antibody, V domains shown)
VH: B8 VH with I34L
VL: B8 VL
B10: BGA501 (antibody, V domains shown)
VH: QVQLVQSGAEVKKPGASVKVSCKASGYSFTGYFLNWVRQAPGQGLEWIGRISPYQGDTFYNQKFKGRVTMTTDKSTSTAYMELRSLRSDDTAVYYCGRSGSFTLFYAIDYWGQGTLVTVSS
VL: DIVMTQSPSSLAVSLGERATINCKSSQSLFHSGNQKNYLAWYQQKPGQSPKLLIYWASTRESGVPDRFSGSGSGTDFTLTISSLQAEDVAVYYCQQYYSYPITFGQGTKLEIK
B11: BGA503 (antibody, V domains shown)
VH: B10 VH with T72V, I108L
VL: B10 VL
B12: BGA502 (antibody, V domains shown)
VH: B10 VH with I108L
VL: B10 VL

These binders were tested against Cyno PVRIG recombinant protein (cynomolgus monkey) (assay: ELISA, chimeric antibody on recombinant cyno PVRIG).
Sequence of Cyno PVRIG recombinant protein (cynomolgus monkey) (Q6DKI7 other isoform, or with tags, fused parts or gaps limits assumed): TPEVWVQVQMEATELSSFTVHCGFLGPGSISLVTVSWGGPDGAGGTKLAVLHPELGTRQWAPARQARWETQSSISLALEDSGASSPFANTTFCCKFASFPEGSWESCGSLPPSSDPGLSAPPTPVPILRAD

Binder | EC50 [nM]
B1 | 0.0273
B2 | 0.223
B3 | 0.039
B4 | 0.0449

These binders were tested against Cyno PVRIG recombinant protein (cynomolgus monkey) (assay: SPR, antibody captured via anti-human Fc, cyno PVRIG analyte).

Binder | Kd [nM] | koff [s⁻¹] | kon [M⁻¹ s⁻¹]
B1 | 0.73 | 0.00588 | 8.05e+06
B2 | 0.109 | 0.000157 | 1.44e+06
B3 | 6.31 | 0.000354 | 56100
B4 | 0.674 | 0.00133 | 1.97e+06

Biological target: Cyno PVRIG recombinant protein (cynomolgus monkey)
Test: as above
Remark: another data set of the same source

Binder | Kd [nM] | koff [s⁻¹] | kon [M⁻¹ s⁻¹]
B5 | 0.0738 | 0.000367 | 4.98e+06
B6 | 0.0658 | 0.000345 | 5.25e+06
B7 | 0.0518 | 0.000243 | 4.7e+06
B1 | 0.347 | 0.0032 | 9.21e+06
B2 | 0.0507 | 0.00021 | 4.15e+06
B4 | 0.552 | 0.0017 | 3.08e+06
B8 | 1.01 | 0.00221 | 2.18e+06
B9 | 2.16 | 0.00483 | 2.23e+06
B10 | 0.426 | 0.00267 | 6.27e+06
B11 | 0.396 | 0.00294 | 7.44e+06
B12 | 0.433 | 0.00266 | 6.16e+06
